Data published in patent US20050118668A1 (WISCONSIN ALUMNI RESEARCH FOUNDATION, published 2005).

Target: T1, T4moD (UniProt Q00459 2-103)
T1 construct: also called 11.6 kDa effector protein of the toluene-4-monooxygenase complex
T1 sequence: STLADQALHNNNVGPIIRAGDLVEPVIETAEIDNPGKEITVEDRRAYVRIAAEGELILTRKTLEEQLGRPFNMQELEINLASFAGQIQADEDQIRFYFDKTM
Test: fluorescence anisotropy titration of 0.97 nM apo-fACP with T4moD

B1: apo-fACP (other)
chain: STIEERVKKIIGEQLGVKQEEVTNNASFVEDLGADSLDTVELVMALEEEFDTEIPDEEAEKITTVQAAIDYINGHQA
notes: mature; also called fACP (apo form, lacking phosphopantetheine)
binding result: no binding
